Experimental data from article PMC10141234, “Adjusting Heterodimeric Coiled-Coils (K/E Zipper) to Connect Autophagy-Inducing Peptide with Cell-Penetrating Peptide” (Pharmaceutics, 2023).
Values belong to the substance of their own block, whether it stands above or below them.

Key:
[1] = target: E2-CPP (Fam-labelled octaarginine cell-penetrating peptide with two EIAALEK units at its N-terminus); conditions: scale: LC3-II/actin ratio
[2] = target: E3-CPP (Fam-labelled octaarginine cell-penetrating peptide with three EIAALEK units at its N-terminus); conditions: scale: LC3-II/actin ratio
[3] = target: E3-CPP (Fam-labelled octaarginine cell-penetrating peptide with three EIAALEK units at its N-terminus); assay: other fluorescence titration; En-CPP (Fam) fixed at 50 nM, AIP-Kn (Tmr) added to Tmr/Fam ratios 0-2.0; PBS pH 7.0, 25 °C; excitation 495 nm, Fam fluorescence at 525 nm quenched by FRET to Tmr; Kd by fit to equation (1), with the saturation intensity Fs taken from AIP-K4/E4-CPP
[4] = target: E4-CPP (Fam-labelled octaarginine cell-penetrating peptide with four EIAALEK units at its N-terminus); conditions: scale: LC3-II/actin ratio
[5] = target: E4-CPP (Fam-labelled octaarginine cell-penetrating peptide with four EIAALEK units at its N-terminus); assay: other fluorescence titration; En-CPP (Fam) fixed at 50 nM, AIP-Kn (Tmr) added to Tmr/Fam ratios 0-2.0; PBS pH 7.0, 25 °C; excitation 495 nm, Fam fluorescence at 525 nm quenched by FRET to Tmr; Kd by fit to equation (1), with the saturation intensity Fs taken from AIP-K4/E4-CPP
HeLa cells = assay: Intracellular delivery of K/E hybrids by confocal laser microscopy; assay type: cell-based; conditions: 10 μM equimolar AIP-Kn/En-CPP mixture, 1 h, 37 °C, conclusion from Fam/Tmr signals
Protocol: HeLa cells were cultured in DMEM supplemented with 10% heat-inactivated FBS in a 5% CO2 incubator at 37 °C. The HeLa cell line has been stocked and propagated in Dr. Masaaki Miyazawa’s laboratory.
AIP-Kn and En-CPP (n = 2, 3, and 4) were dissolved in DMSO at 10 mM each to make a stock peptide solution. The stock solution was diluted to the desired concentration using Opti-MEM. Equal volumes of the diluted AIP-Kn and En-CPP were mixed in a 1.5 mL tube for 1 h with rotation at room temperature to generate hybrids. For single-component controls (AIP-Kn or En-CPP only), equal volumes of the diluted AIP-Kn or En-CPP and Opti-MEM with DMSO, which was added instead of the stock peptide solution, were mixed in a 1.5 mL tube, and the mixture was then treated in a manner similar to that for the hybrid formation. […]
One day before peptide treatment, 1 × 10^5 cells in 2 mL of HeLa cells were seeded on a glass-bottomed dish (Matsunami Glass, Osaka, Japan) and cultured in a 5% CO2 incubator at 37 °C. […] After washing the cells, 2 mL of PBS was added and fluorescence signals from the cells were observed using a confocal laser microscope with a Plan Apo 60× oil-immersion DIC H objective (CLMS; C2si Ready; Nikon, Tokyo, Japan). Data were analyzed using NIS-Elements Advanced research software (Nikon).

Chain of E4-CPP (Fam-labelled octaarginine cell-penetrating peptide with four EIAALEK units at its N-terminus) (peptide, as listed by the source): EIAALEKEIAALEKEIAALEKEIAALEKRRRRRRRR
Chain of E3-CPP (Fam-labelled octaarginine cell-penetrating peptide with three EIAALEK units at its N-terminus) (peptide, as listed by the source): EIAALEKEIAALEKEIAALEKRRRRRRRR
Chain of E2-CPP (Fam-labelled octaarginine cell-penetrating peptide with two EIAALEK units at its N-terminus) (peptide, as listed by the source): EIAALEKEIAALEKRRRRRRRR

autophagy induction in HeLa cells, LC3-II/actin ratio by immunoblot, 10 μM, 3 h, relative to AIP-K3/E3-CPP [1]: 0.08
Substance: AIP-K2 (Tmr-labelled autophagy-inducing peptide with two KIAALKE units at its C-terminus)

autophagy induction in HeLa cells, LC3-II/actin ratio by immunoblot, 10 μM, 3 h, the reference of the ratio [2]: 1
Kd [3]: 0.02 µM
stoichiometry N [3]: 1
Substance: AIP-K3 (Tmr-labelled autophagy-inducing peptide with three KIAALKE units at its C-terminus)

autophagy induction in HeLa cells, LC3-II/actin ratio by immunoblot, 10 μM, 3 h, relative to AIP-K3/E3-CPP [4]: 0.59
Kd [5]: 0.002 µM
stoichiometry N [5]: 1
Substance: AIP-K4 (Tmr-labelled autophagy-inducing peptide with four KIAALKE units at its C-terminus)

Substance: Fam-(EIAALEK)2-RRRRRRRR [E2-CPP, octaarginine modified with (EIAALEK)2 at its N-terminus, labeled with fluorescein]
intracellular delivery (translocation into cells) (HeLa cells): alone translocates across the plasma membrane
